From PMC9308819 (Nature Communications, 2022)
Positions count from the first letter of the chain named. Each block holds one binder with its values, some of them ahead of it.

Experiments:
Rab3D = target: T1, Rab3D (Homo sapiens (Human), UniProt O95716); assay: ITC
T1 chain: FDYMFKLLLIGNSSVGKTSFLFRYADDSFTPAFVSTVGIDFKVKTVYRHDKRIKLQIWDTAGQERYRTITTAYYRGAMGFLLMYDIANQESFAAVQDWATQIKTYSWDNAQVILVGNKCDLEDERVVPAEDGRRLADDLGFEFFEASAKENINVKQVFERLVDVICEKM

Rab27A = target: T2, Rab27A (Homo sapiens (Human), UniProt P51159); assay: ITC
T2 chain: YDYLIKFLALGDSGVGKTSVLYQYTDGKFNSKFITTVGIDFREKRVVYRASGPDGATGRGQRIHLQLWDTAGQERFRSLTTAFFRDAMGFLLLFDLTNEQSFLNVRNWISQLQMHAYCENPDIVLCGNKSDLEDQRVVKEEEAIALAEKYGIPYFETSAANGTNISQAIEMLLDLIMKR

Rab3A = target: T3, Rab3A (Homo sapiens (Human), UniProt P20336); assay: ITC
T3 chain: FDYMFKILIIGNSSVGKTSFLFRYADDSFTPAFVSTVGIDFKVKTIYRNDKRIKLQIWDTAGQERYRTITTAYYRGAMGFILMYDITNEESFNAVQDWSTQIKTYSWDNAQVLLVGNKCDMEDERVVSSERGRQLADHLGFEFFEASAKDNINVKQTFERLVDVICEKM

Rab3B = target: T4, Rab3B (Homo sapiens (Human), UniProt P20337); assay: ITC
T4 chain: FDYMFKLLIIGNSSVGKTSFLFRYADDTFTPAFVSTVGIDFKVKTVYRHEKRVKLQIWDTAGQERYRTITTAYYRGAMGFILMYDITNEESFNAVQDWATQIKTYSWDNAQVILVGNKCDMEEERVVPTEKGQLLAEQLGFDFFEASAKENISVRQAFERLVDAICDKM

Rep15 L88A [1] = target: T5, Rep15 L88A (human, UniProt Q6BDI9 1-236, N101D | L88A); assay: ITC
T5 sequence: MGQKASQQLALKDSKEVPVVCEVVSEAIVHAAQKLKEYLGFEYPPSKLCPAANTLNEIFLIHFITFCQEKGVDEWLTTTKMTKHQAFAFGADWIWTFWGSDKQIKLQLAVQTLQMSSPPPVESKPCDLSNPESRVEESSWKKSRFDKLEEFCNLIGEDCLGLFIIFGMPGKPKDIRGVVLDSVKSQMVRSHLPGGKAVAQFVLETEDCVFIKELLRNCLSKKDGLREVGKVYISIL

Rep15 D158A [2] = target: T6, Rep15 D158A (human, UniProt Q6BDI9 1-236, N101D | D158A); assay: ITC
T6 sequence: T5 sequence with A88L, D158A

Rep15 Q85A [3] = target: T7, Rep15 Q85A (human, UniProt Q6BDI9 1-236, N101D | Q85A); assay: ITC
T7 sequence: T5 sequence with Q85A, A88L

Rep15 W140A [4] = target: T8, Rep15 W140A (human, UniProt Q6BDI9 1-236, N101D | W140A); assay: ITC
T8 sequence: T5 sequence with A88L, W140A

[5] = target: T9, Rep15, full length (natural N101D variant) (human, UniProt Q6BDI9 1-236, N101D); assay: stopped-flow fluorescence intensity; association; 0.5 µM mant-GppNHp Rab3A mixed with increasing Rep15 (2–14 µM); 25 °C; 20 mM Hepes 8.0, 50 mM NaCl, 1 mM MgCl2, 2 mM DTE; koff from the intercept, KD as koff/kon; details: both partners purified
T9 construct: also called full-length Rep15; Rab15 effector protein
T9 sequence (looked up): T5 sequence with A88L

Rep15 W140A [6] = target: T10, Rep15 W140A (human, UniProt Q6BDI9 1-236, N101D | W140A); assay: ITC; 500/600 µM GppNHp/GTP Rab titrated into 50/60 µM Rep15; 20 mM Hepes 8.0, 50 mM NaCl, 1 mM MgCl2, 1 mM TCEP; one-site-binding model; details: both partners purified
T10 construct: source: E. coli BL21 Codon-Plus(DE3)-RIL, purified
T10 sequence: T5 sequence with A88L, W140A

Rep15 V135A = target: T11, Rep15 V135A (human, UniProt Q6BDI9 1-236, N101D | V135A); assay: as above; details: both partners purified
T11 construct: source: E. coli BL21 Codon-Plus(DE3)-RIL, purified
T11 sequence: T5 sequence with A88L, V135A

Rep15 L88A [7] = target: T12, Rep15 L88A (human, UniProt Q6BDI9 1-236, N101D | L88A); assay: as above; details: both partners purified
T12 construct: Limits probably as full-length wild type; source: E. coli BL21 Codon-Plus(DE3)-RIL, purified
T12 sequence: T5 sequence

Rep15 Q85A [8] = target: T13, Rep15 Q85A (human, UniProt Q6BDI9 1-236, N101D | Q85A); assay: as above; details: both partners purified
T13 construct: Limits probably as full-length wild type; source: E. coli BL21 Codon-Plus(DE3)-RIL, purified
T13 sequence: T5 sequence with Q85A, A88L

Rep15 H84A = target: T14, Rep15 H84A (human, UniProt Q6BDI9 1-236, N101D | H84A); assay: as above; details: both partners purified
T14 construct: Limits probably as full-length wild type; source: E. coli BL21 Codon-Plus(DE3)-RIL, purified
T14 sequence: T5 sequence with H84A, A88L

Rep15 D158A [9] = target: T15, Rep15 D158A (human, UniProt Q6BDI9 1-236, N101D | D158A); assay: as above; details: both partners purified
T15 construct: Limits probably as full-length wild type; source: E. coli BL21 Codon-Plus(DE3)-RIL, purified
T15 sequence: T5 sequence with A88L, D158A

Kd (Rab3D): 790 nM
Kd (Rab27A): 86.2 µM
Kd (Rab3A): 480 nM
Kd (Rab3B): 2160 nM
B1: Rep15 (protein)
chain: VPVVCEVVSEAIVHAAQKLKEYLGFEYPPSKLCPAANTLNEIFLIHFITFCQEKGVDEWLTTTKMTKHQAFLFGADWIWTFWGSNKQIKLQLAVQTLQMSSPPPVESKPCDLSNPESRVEESSWKKSRFDKLEEFCNLIGEDCLGLFIIFGMPGKPKDIRGVVLDSVKSQMVRSHLPGGKAVAQFVLETEDCVFIKELLRNCLSKKDGLREVGKVYISIL

Kd (Rep15 L88A [1]): 9.7 µM
Kd (Rep15 D158A [2]): 5.59 µM
Kd (Rep15 Q85A [3]): 18.5 µM
Kd (Rep15 W140A [4]): 400 nM
Kd [5]: 440 to 530 nM
koff [5]: 4.29 s⁻¹
kon [5]: 9.72e+06 M⁻¹ s⁻¹
binding result (Rep15 W140A [6]): binds
binding result (Rep15 V135A): binds
fold reduction in affinity against wild-type Rep15 (Rep15 L88A [7]): 20 fold
fold reduction in affinity against wild-type Rep15 (Rep15 Q85A [8]): > 30 fold
binding result (Rep15 H84A): binds
fold reduction in affinity against wild-type Rep15 (Rep15 D158A [9]): 12 fold
B2: Rab3A, purified, nucleotide-loaded (natural protein, human, UniProt P20336 1-220, looked up)
chain: MASATDSRYGQKESSDQNFDYMFKILIIGNSSVGKTSFLFRYADDSFTPAFVSTVGIDFKVKTIYRNDKRIKLQIWDTAGQERYRTITTAYYRGAMGFILMYDITNEESFNAVQDWSTQIKTYSWDNAQVLLVGNKCDMEDERVVSSERGRQLADHLGFEFFEASAKDNINVKQTFERLVDVICEKMSESLDTADPAVTGAKQGPQLSDQQVPPHQDCAC
notes: Rab3A, human; Loaded with GppNHp (aSEC, ITC) or mant-GppNHp (stopped flow); also called Rab3A_(GppNHp); Rab3A_(mantGppNHp); source: E. coli BL21 Codon-Plus (DE3)-RIL, purified (Ni Sepharose, TEV cleavage, gel filtration)
